Results taken from patent US20140161803A1 (IFOM Fondazione Istituo FIRC di Oncologia Molecolare, priority 2011, published 2014).
Marks after values point to notes of the source that are not given here.

Target: T1, human uPAR (Homo sapiens, UniProt Q03405)
T1 construct: the mature protein (Leu^1-Gly^283) in bold; expressed in transfected cells; host or cells: HEK293 Flp-In T-REx (293)
Experiment: Real-time cell analyzer (xCELLigence) adhesion of 293/uPAR cells to VN
Type: cell-based
Conditions: cell index one hour after addition, highest antibody concentration 300 nM
Experimental: The electric impedance (termed cell index, CI) was recorded at regular intervals. […] The curves show the normalized cell index (NCI, Y-axis) as a function of time (X-axis). All cell indexes were normalized to the cell index measured immediately prior to antibody addition. To determine IC50 values (panel D), the NCI measured one hour after antibody addition were calculated in % of the NCI for untreated cells at the same time point (ΔNCI, Y-axis) and graphed in function of antibody concentration (X-axis).
96-well E-Plates were coated with VN (5 μg/ml) or FN (10 μg/ml) over night at 4° C. Plates were washed with PBS, added 0.1 ml serum free medium (DMEM, 0.1% bovine serum albumin, 25 mM Hepes pH 7.0) and transferred to real-time cell analyzer instrument (xCELLigence SP, Roche Corp.). […] The plate was returned to the instrument and the cell index recorded every three minutes. […] After another 1-1.5 hours of measurements the plate was removed again and wells added (20 μl) of antibody diluted to yield the indicated final concentrations. The plate was returned to the instrument and measurements conducted every 3 minutes for 2 hours and then every 15 minutes for 18 hours.

T1 sequence (Q03405 23-305): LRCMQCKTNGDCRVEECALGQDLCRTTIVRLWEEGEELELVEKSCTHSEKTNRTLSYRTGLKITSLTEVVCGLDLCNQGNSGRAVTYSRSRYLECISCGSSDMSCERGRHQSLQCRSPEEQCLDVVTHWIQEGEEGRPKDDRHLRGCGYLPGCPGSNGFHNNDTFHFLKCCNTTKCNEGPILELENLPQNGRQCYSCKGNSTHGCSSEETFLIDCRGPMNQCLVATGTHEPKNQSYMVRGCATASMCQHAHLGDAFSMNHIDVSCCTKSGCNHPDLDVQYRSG

SMB: uPAR-binding N-terminal domain of VN, natural competitive antagonist of the uPAR/VN-interaction (DQESCKGRCTEGFNVDKKCQCDELCSYYQSCCTDYTAECKPQVT) [reference compound]
% max inhibition (pro-uPA pre-treat.) (pro-uPA pre-treated 293/uPAR cells on VN): 100* %
% max inhibition (veh. pre-treat.) (vehicle pre-treated 293/uPAR cells on VN): 100* %
